Test results from paper PMC8464039 (Nucleic Acids Research, 2021).

How the values were obtained:
[1] = molecular target: T1, Csy complex (crRNA-guided surveillance complex) (Pseudomonas aeruginosa, UniProt Q02ML9;Q02MM0;Q02MM1;Q02MM2 1-434;1-327;1-342;1-187); assay: EMSA
T1 sequence 1: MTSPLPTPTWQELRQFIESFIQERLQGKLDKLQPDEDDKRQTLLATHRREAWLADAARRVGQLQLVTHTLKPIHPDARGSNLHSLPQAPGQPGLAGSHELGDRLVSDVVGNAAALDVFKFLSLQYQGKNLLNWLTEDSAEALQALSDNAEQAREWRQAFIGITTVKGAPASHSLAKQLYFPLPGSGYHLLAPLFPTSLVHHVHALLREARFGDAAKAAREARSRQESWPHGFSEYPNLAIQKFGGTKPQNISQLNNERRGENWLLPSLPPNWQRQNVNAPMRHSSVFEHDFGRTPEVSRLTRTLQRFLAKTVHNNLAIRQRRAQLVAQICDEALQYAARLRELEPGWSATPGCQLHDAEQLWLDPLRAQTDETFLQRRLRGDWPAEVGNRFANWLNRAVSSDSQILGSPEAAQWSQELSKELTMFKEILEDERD
T1 sequence 2: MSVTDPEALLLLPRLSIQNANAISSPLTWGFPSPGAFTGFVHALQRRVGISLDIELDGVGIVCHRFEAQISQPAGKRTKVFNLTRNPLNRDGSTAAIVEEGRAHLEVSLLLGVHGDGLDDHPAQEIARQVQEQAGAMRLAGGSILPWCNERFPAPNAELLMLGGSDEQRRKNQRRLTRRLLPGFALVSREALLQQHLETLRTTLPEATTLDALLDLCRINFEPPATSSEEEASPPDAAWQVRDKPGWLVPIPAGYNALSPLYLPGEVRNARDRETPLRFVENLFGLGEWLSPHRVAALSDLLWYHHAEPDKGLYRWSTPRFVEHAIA
T1 sequence 3: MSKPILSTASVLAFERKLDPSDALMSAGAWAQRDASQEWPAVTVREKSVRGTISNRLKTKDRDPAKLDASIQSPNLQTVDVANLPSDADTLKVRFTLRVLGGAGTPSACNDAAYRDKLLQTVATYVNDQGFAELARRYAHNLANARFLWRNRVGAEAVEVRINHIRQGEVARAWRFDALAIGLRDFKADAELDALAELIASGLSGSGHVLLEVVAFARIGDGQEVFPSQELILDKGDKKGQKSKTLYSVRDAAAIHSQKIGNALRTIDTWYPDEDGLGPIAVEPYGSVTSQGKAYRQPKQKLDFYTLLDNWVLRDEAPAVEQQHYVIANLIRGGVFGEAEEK
T1 sequence 4: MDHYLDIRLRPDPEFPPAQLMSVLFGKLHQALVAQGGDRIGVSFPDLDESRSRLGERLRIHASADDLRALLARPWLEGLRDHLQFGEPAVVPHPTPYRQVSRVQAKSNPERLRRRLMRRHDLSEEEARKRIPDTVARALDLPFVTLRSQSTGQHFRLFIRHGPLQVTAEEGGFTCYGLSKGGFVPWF

CsyRE3 = molecular target: T2, CsyRE3 (Pseudomonas aeruginosa, UniProt Q02ML9;Q02MM0;Q02MM1;Q02MM2 1-434;1-327;1-342;1-187, R207E;R219E;R258E); assay: EMSA
T2 sequence 1: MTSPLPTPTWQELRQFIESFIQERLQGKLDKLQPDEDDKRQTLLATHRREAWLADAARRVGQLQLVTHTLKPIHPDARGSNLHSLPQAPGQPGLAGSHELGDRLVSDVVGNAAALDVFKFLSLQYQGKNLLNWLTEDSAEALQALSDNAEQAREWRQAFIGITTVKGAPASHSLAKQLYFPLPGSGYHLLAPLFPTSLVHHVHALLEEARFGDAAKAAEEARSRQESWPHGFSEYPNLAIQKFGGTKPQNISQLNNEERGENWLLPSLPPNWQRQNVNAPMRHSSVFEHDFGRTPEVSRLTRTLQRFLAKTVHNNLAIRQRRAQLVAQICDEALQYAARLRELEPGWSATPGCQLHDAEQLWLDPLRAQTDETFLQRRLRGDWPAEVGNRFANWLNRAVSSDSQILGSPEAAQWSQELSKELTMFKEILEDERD
T2 sequence 2: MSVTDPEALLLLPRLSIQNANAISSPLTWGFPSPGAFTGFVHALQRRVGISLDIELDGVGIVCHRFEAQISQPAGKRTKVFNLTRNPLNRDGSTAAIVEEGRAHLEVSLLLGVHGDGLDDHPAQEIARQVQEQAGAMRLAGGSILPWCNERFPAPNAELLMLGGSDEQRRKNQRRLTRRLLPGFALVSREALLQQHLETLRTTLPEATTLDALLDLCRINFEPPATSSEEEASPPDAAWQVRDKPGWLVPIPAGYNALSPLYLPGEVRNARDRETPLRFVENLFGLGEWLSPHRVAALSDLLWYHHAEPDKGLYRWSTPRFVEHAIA
T2 sequence 3: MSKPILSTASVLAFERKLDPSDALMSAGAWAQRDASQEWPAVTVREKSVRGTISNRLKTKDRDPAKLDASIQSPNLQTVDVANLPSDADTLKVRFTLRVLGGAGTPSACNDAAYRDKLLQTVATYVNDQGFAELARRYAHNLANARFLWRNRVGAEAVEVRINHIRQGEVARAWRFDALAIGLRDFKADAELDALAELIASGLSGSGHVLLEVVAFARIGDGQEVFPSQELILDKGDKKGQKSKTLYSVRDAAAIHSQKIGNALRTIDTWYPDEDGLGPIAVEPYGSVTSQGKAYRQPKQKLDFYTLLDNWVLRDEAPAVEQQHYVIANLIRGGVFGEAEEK
T2 sequence 4: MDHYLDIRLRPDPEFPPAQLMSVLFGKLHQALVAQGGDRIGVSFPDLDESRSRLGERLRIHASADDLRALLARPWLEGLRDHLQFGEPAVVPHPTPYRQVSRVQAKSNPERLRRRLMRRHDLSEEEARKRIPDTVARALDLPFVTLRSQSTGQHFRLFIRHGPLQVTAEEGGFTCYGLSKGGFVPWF

[2] = molecular target: T1, Csy complex (crRNA-guided surveillance …); assay: competition
cryo-EM structure = molecular target: the molecule itself; assay: cryo-EM structure

B1: dsDNANS (non-specific, 54 bp) (dsDNA)
DNA 1: GAGCGACTACGACATGAGCGCGCAGCTAAGACCGCCCGTAGATGCGTCGAGCGT
DNA 2: ACGCTCGACGCATCTACGGGCGGTCTTAGCTGCGCGCTCATGTCGTAGTCGCTC
[1]
  binding result: no binding
CsyRE3
  binding result: no binding

B2: dsDNANS unlabeled (dsDNA)
DNA 1: GAGCGACTACGACATGAGCGCGCAGCTAAGACCGCCCGTAGATGCGTCGAGCGT
DNA 2: ACGCTCGACGCATCTACGGGCGGTCTTAGCTGCGCGCTCATGTCGTAGTCGCTC
[2]
  binding result: no binding

B3: Cas7f subunit of the Csy complex (natural protein, P. aeruginosa)
chain: MSKPILSTASVLAFERKLDPSDALMSAGAWAQRDASQEWPAVTVREKSVRGTISNRLKTKDRDPAKLDASIQSPNLQTVDVANLPSDADTLKVRFTLRVLGGAGTPSACNDAAYRDKLLQTVATYVNDQGFAELARRYAHNLANARFLWRNRVGAEAVEVRINHIRQGEVARAWRFDALAIGLRDFKADAELDALAELIASGLSGSGHVLLEVVAFARIGDGQEVFPSQELILDKGDKKGQKSKTLYSVRDAAAIHSQKIGNALRTIDTWYPDEDGLGPIAVEPYGSVTSQGKAYRQPKQKLDFYTLLDNWVLRDEAPAVEQQHYVIANLIRGGVFGEAEEK
cryo-EM structure
  stoichiometry N: 6

B4: dsDNASP (specific target, 54 bp) (dsDNA)
DNA 1: GGAAGCCATCCAGGTAGACGCGGACATCAAGCCCGCCGTGAAGGTGCAGCTGCT
DNA 2: AGCAGCTGCACCTTCACGGCGGGCTTGATGTCCGCGTCTACCTGGATGGCTTCC
[1]
  binding result: binds
CsyRE3
  binding result: no binding
